Measured values taken from US11920136B2, “Transglutaminase-mediated conjugation” (Tallac Therapeutics, Inc., priority 2020, dated 2024).

B1: TNT50a: "an anti-mouse CD22 antibody (SEQ ID NO: 124 and SEQ ID NO: 125) conjugated to mouse CpG 4523 (SEQ ID NO: 121) of DAR1 configuration" (conjugate, listed as Mus musculus)
chain 1: QVQLQQPGAEIVRPGTSVKLSCKASGYTFTDYWMNWVKQRPGQGLEWFGAIDPSDSYTRYNQEFKGKATLTVDTSSTTAYMQLSSLTSEDSAVYFCARSDYTYSFYFDYWGLGTTLTVSS
chain 2: DIVMTQAAFSNPVTLGTSASISCRSSKSLLHSNGITYLYWYLQKPGQSPQLLIYQMSNLASGVPDRFSSSGSGTDFTLRISRVEAEDVGVYYCAQNLELPWTFGGGTKLEIK
DNA: tucgtcgtgacgtt
modifications: antibody-CpG conjugate, DAR1
B2: CD22 Ab-CpG conjugate: "anti-mouse CD22 antibody (SEQ ID NO: 124 and SEQ ID NO: 125) conjugated to mouse CpG 4523 (SEQ ID NO: 121) with a DAR1 configuration" (conjugate, listed as Mus musculus)
chain 1: B1 chain 1
chain 2: B1 chain 2
DNA: tucgtcgtgacgtt
modifications: antibody-CpG conjugate, DAR1

Key:
[1] = system: EMT6 mouse mammary carcinoma cells; test: EMT6 breast cancer model (checkpoint inhibitor refractory), intraperitoneal dosing; type: in vivo, BALB/c mice; conditions: intraperitoneally 2 doses every 3, 5 or 7 days at 10 mg/kg
Method: EMT6 mouse mammary carcinoma cells (ATCC) were cultured in Complete RPMI 1640 (RPMI1640+10% FBS (Gibco)) at 37° C. and 5% CO2. Cells were detached with Trypsin 0.25% (Gibco) and washed twice with RPMI 1640 (Gibco). Cells were resuspended at 20E6/mL in RPMI 1640 and kept on ice until use. 100 uL of suspended cells were subcutaneously implanted into the right flank of 6 week old female BALB/c mice (Charles River). Tumor size was measured and recorded twice a week with calipers starting 3 days post implantation until duration of the study, approximately 35 days later. Tumor volume was calculated using the following formula: (length×width×width)/2. Once tumors reached on average 75 mm^3, approximately 3 days post implantation, mice were randomized by tumor size and treatments were initiated. […] TNT50a conjugates were administered intraperitoneally 2 doses every 3, 5 or 7 days at 10 mg/kg.

[2] = system: CT26 mouse colon carcinoma cells; test: CT26 model, anti-PD1 non-responders; type: in vivo, BALB/c mice; conditions: conjugate intravenously 2 doses every 3 days at 10 mg/kg; anti-PD1 intraperitoneal 10 mg/kg
Method: 100 uL of suspended cells were subcutaneously implanted into the right flank of 6 week old female BALB/c mice (Charles River).

spleens and tumors = test: Immunophenotyping of spleen and tumor in syngeneic models (A20, CT26, EMT6); type: in vivo, BALB/c mice; conditions: 1 or 2 doses intraperitoneally every 3 days at 10 mg/kg
Method: Immunophenotyping of multiple syngeneic models administered with TNT50a were conducted. […] A20 B cell lymphoma, CT26 colon carcinoma, EMT6 mouse mammary carcinoma cells (ATCC) were cultured in Complete RPMI 1640 (RPMI1640+10% FBS (Gibco)) at 37° C. and 5% CO2. Cells were detached with Trypsin 0.25% (Gibco) and washed twice with RPMI 1640 (Gibco). Cells were resuspended at 20E6/mL in RPMI 1640 and kept on ice until use. 100 uL of suspended cells were subcutaneously implanted into the right flank of 6 week old female BALB/c mice (Charles River). Tumor size was measured with calipers. Tumor volume was calculated using the following formula: (length×width×width)/2. Once tumors reached on average 200-300 mm^3, mice were randomized by tumor size and treatments were initiated. The conjugates were administered 1 or 2 doses intraperitoneally every 3 days at 10 mg/kg.
Spleens and tumors were harvested either two or three days post-last injection for immunophenotyping. Spleens were processed into single-cell suspension in ice-cold PBS, lysed with ACK lysis buffer (Gibco), washed twice and re-suspended in PBS supplemented with 2% FBS. Tumor-derived single-cell suspensions were prepared using a cocktail of Collagenase A (Roche), Collagenase D (Roche) and DNAse (Roche) for 45 min at 37° C. […]

[3] = system: EMT6 mouse mammary carcinoma cells; test: EMT6 breast cancer model, intratumoral administration; type: in vivo, BALB/c mice; conditions: intratumorally 2 doses every 3 days at 24 uM
Method: 100 uL of suspended cells were subcutaneously implanted into the right flank of 6 week old female BALB/c mice (Charles River). Tumor size was measured and recorded twice a week with calipers starting 7 days post implantation until duration of the study, approximately 25 days later. Tumor volume was calculated using the following formula: (length×width×width)/2. Once tumors reached on average 180 mm^3, approximately 7 days post implantation, mice were randomized by tumor size and treatments were initiated.

4T1 cells = test: 4T1 lung metastatic burden; type: in vivo, BALB/C mice; conditions: 10 mg/kg, 3 doses every 3 days; compared to the control

| Molecule | anti-tumor efficacy [1] | tumor volume in anti-PD1 non responders [2] | immune cell changes in spleen and tumor (spleens and tumors) | anti-tumor potency [3] | number of metastatic plaques (4T1 cells) |
| --- | --- | --- | --- | --- | --- |
| B1 | showed anti-tumor efficacy in all three dosing regimens | tumor volume was reduced |  |  |  |
| B2 |  |  | promotes B cell differentiation, decrease in Bregs, increase in T cell effector function and modulation of suppressive myeloid cells | showed anti-tumor potency | significantly reduced |
